Measurements: patent US8535662B2, “Apyrase therapy for bleeding conditions” (Apt Therapeutics, Inc., priority 2010, dated 2013)
Marks after values point to notes of the source that are not given here.

How the values were obtained:
[1] = system: F344 rats, lung graft; experiment: Airway administration of apyrase agent after rat lung graft (Example 10); type: in vivo; conditions: for PaO2: saline about 200; for neutrophil accumulation in lung graft airways: saline control 12×10^2
Method: F344 rat lung grafts were flushed and cold preserved in Apyrase agent solution (0.2 mg/L) and engrafted into syngeneic F344 recipients.
At 5 minutes post-reperfusion 1 ml apyrase agent solution (1 mg/kg) (N=6) or an equivalent volume of saline carrier was administered to the trachea at approximately 5 minutes post-reperfusion (N=7). In additional group of lung graft recipients that were treated with apyrase agent intratracheally, apyrase agent was also administered intravenously at 7 minutes post-reperfusion at 0.66 mg/kg (N=9). Lung graft oxygenation, airway cellularity and airway granulocyte numbers were measured 4 hours post-reperfusion. We noted no gross pulmonary hematomas in any treatment groups.

[2] = system: pigs, coronary injury with stenting; conditions: pig, in vivo
[3] = system: ADP-induced platelet aggregation; experiment: Ex vivo ADP-induced platelet aggregation in platelet-rich plasma after dosing rabbits; parameters: species or system rabbit
Source text: Blood samples taken at various time points were heparinized.
Data are presented as relative light transmission versus time.

[4] = system: rabbits; conditions: rabbit, in vivo
Method: Rabbits were anesthetized with intramuscular ketamine/xylazine followed by inhaled isoflurane to maintain a stable level of surgical anesthesia for 5 h. Arterial blood pressure was monitored continuously and values for pressure and heart rate recorded at intervals after administration of apyrase agent and/or other antiplatelet agents. Venous blood samples were collected at baseline (before agents were given) for analysis of CBC and chemistry and samples were obtained serially for assay of prothrombin time (PT) and activated partial prothromboplastin time (aPTT).

[5] = system: Wistar Furth recipients of Lewis lungs; experiment: Allogenic rat lung transplant model, Lewis to Wistar Furth (Example 11); type: in vivo; conditions: rats, 0.66 mg/kg/day IV for 7 days
Method: Lewis donor lungs stored for a minimal cold ischemia time of 1 hr were engrafted into allogenic Wistar Furth recipients and treated for 7 days in the following manner:
1. Saline: Received Saline 250 μl/day
2. Apyrase: Received Apyrase agent, 0.66 mg/kg/day IV
3. CyA (standard): Received Cyclosporine A 25 mg/kg/day, IP (standard dose used in previous studies)
4. CyA (low): Received Cyclosporine A 5.0 mg/kg/day, IP (sub optimal dose)
5. CyA (low)+apyrase agent: Received Cyclosporine A 5.0 mg/kg/day, IP and Received apyrase agent, 0.66 mg/kg/day IV
On post-operative day 7 recipients were evaluated for lung graft function by assessing PaO2 (FIG. 10) and then sacrificed and scored blindly for vascular rejection (FIG. 11) using the ISHLT scoring system by a pathologist who routinely evaluates lung allograft rejection. The ISHLT scoring criteria is a scale from where a score of A0 there is no evidence of vascular rejection as in completely syngeneic recipients (e.g., Lewis to Lewis lung transplantation) to A4 as is almost always observed in Lewis to Wistar Furth Recipients. Statistical differences between treatment groups (n=10) were determined by the student t test where significance differences were assessed as p<0.05. Control group for the alloimmune response was the Lewis to Lewis lung transplant combination.

[6] = system: rats, thromboembolic stroke (MCA occlusion); experiment: Rat model of thromboembolic stroke (MCA occlusion by preformed clot), apyrase agent plus aspirin (Example 2); type: in vivo; conditions: for Neurological deficits, median (interquartile range 25th to 75th), modified Bederson score: n = 10
Method: In this study, four experimental groups were included (n=10):
(1) control, saline injected gastrically;
(2) aspirin, 1.25 mg/kg (equivalent to 100 mg/day dose in human) injected gastrically once a day, starting 3 days prior to middle cerebral artery (MCA) occlusion and also MCA occlusion until the end of each experiment;
(3) apyrase, dose at 0.75 mg/kg injected IV at 2 h after MCA occlusion;
(4) combination group, aspirin and apyrase agent.
In this clinically relevant embolic model, ischemic brain injury was induced by embolizing preformed clots into the middle cerebral artery (MCA). Ten microliters of blood were withdrawn into a catheter and retained for 15 min to allow formation of a clot. Once the clot was formed, the catheter was advanced 17 mm in the ICA until its tip was 1-2 mm away from the origin of the MCA. The preformed clot in the catheter was then injected, and the catheter was removed. […]
Infarct was measured in the brain section stained with 2,3,5-triphenyltetrazolium chloride (TTC) solution. The infarct volume was expressed as a percentage of the total volume from the ipsilateral hemisphere.
Brain swelling (edema) was determined using a formula: edema=(the volume of the right hemisphere—the volume of the left hemisphere)/the volume of the left hemisphere.
Neurological deficits were determined using a modified Bederson's scoring system as following: 0: no observable deficit; 1: forelimb flexion; 2: forelimb flexion plus decreased resistance to lateral push; 3: unidirectional circling; 4: unidirectional circling plus decreased level of consciousness.
Hemorrhagic transformation was quantified by detection of extracellular hemoglobin content in brain homogenates using Drabkin's reagents.

[7] = system: C57BL/6J mice, myocardial ischemia; experiment: Mouse model of cardiac ischemia/reperfusion injury (Example 8); type: in vivo; conditions: 24 hr reperfusion
Method: A mouse model of cardiac ischemia/reperfusion injury was used to determine the effect of apyrase agent on infarct size. Myocardial ischemia was produced in C57BL/6J mice via left anterior coronary artery ligation. Mice were treated with apyrase agent (1 mg/kg, IV) or saline 5 min prior to 60 min of experimentally-induced myocardial ischemia or 50 min after ischemia (n=6-8 per group). After 24 hr of reperfusion, hearts were excised and area at risk and infarct size were determined by Evan's blue and triphenyltetrazolium staining.

[8] = system: pigs, coronary injury with stenting; experiment: Coronary injury (balloon overstretch) and bare metal stent in pigs: platelet accumulation and luminal stenosis (Example 6); type: in vivo, pig; conditions: 30 days after stenting, six measurements in two pigs
Method: Coronary injury with or without stenting in pigs is regarded as the best preclinical model for simulation of human angioplasty (Touchard, A. G., et al., Thromb. Res. (2007) 120:477-484). One coronary artery was injured by balloon overstretch in each pig and the site of injury including some overlap with the non-injured vessel was covered with a single bare metal stent (BMS).
Accumulation of ^111In-labeled autologous platelets on the stents over the first 24 h was measured in 4/6 pigs in each group. Radiolabeled platelets were injected 15 min before the coronary catheterization and the hearts perfusion-fixed after 24 h to obtain the stented vessel segment for counting radiolabeled platelets.

B1: sol CD39L3 R67G T69R (protein)
chain: EVLPPGLKYGIVLDAGSSGTRVYVYQWPAEKENNTGVVSQTFKCSVKGSGISSYGNNPQDVPRAFEECMQKVKGQVPSHLHGSTPIHLGATAGMRLLRLQNETAANEVLESIQSYFKSQPFDFRGAQIISGQEEGVYGWITANYLMGNFLEKNLWHMWVHPHGVETTGALDLGGASTQISFVAGEKMDLNTSDIMQVSLYGYVYTLYTHSFQCYGRNEAEKKFLAMLLQNSPTKNHLTNPCYPRDYSISFTMGHVFDSLCTVDQRPESYNPNDVITFEGTGDPSLCKEKVASIFDFKACHDQETCSFDGVYQPKIKGPFVAFAGFYYTASALNLSGSFSLDTFNSSTWNFCSQNWSQLPLLLPKFDEVYARSYCFSANYIYHLFVNGYKFTEETWPQIHFEKEVGNSSIAWSLGYMLSLTNQIPAESPLIRLPIEPPV
modifications: glycosylated; synthetically constructed apyrase
PaO2 ([1]; IT 1 mg/kg and IV 0.66 mg/kg, 4 hours post-reperfusion): ~320 mm Hg | reduction of neutrophils in the airway ([1]; airway administration, 4 hours post-reperfusion): over 50% | neutrophil accumulation in lung graft airways ([1]; airway alone): 5×10^2 neutrophils | neutrophil accumulation in lung graft airways ([1]; airway and IV): 3×10^2 neutrophils | PaO2 ([1]; intratracheally (IT) 1 mg/kg, 4 hours post-reperfusion): about 300 mm Hg | blood loss from a standardized incision of the abdominal wall [2]: not increased | inhibition of ADP-induced platelet aggregation ([3]; 0.75 mg/kg IV single bolus, 10 mM ADP): more than 95% | inhibition of ADP-induced platelet aggregation ([3]; 0.75 mg/kg IV, 6 h after dosing): 70% | time point after dosing at which strong effects were observed (onset of antiplatelet action) ([3]; apyrase agent 0.75 mg/kg IV): 5 min | PT [4]: Neither PT nor aPTT were changed significantly | aPTT [4]: Neither PT nor aPTT were changed significantly | blood pressure [4]: Neither blood pressure nor heart rate changed significantly | heart rate [4]: Neither blood pressure nor heart rate changed significantly | alloimmune responses in lung allograft recipients (PaO2, ISHLT vascular rejection score) [5]: effective at suppressing alloimmune responses | Neurological deficits, median (interquartile range 25th to 75th), modified Bederson score ([6]; 4 h after MCA occlusion): 3 | Neurological deficits, median (interquartile range 25th to 75th), modified Bederson score ([6]; 4 h after MCA occlusion, listed as Apyrase agent): 3 (2-3) | Neurological deficits, median (interquartile range 25th to 75th), modified Bederson score ([6]; 8 h after MCA occlusion): improved | Neurological deficits, median (interquartile range 25th to 75th), modified Bederson score ([6]; 8 h after MCA occlusion, listed as Apyrase agent): 2 (2-3)*^ | infarct volume, percentage of the total volume of the ipsilateral hemisphere (mean±SD) ([6]; 24 h after MCA occlusion, aspirin 1.25 mg/kg gastrically once a day from 3 days prior, apyrase 0.75 mg/kg IV at 2 h): 17.89±2.35% | Neurological deficits, median (interquartile range 25th to 75th), modified Bederson score ([6]; 24 h after MCA occlusion): significantly less severe than the control group | Neurological deficits, median (interquartile range 25th to 75th), modified Bederson score ([6]; 24 h after MCA occlusion, listed as Apyrase agent): 1.5 (1-2)* | extracellular hemoglobin content in brain homogenates (hemorrhagic transformation, Drabkin's reagents) ([6]; 24 h after ischemic injury): 0.89±0.08 | brain edema (brain swelling) ([6]; 24 h after ischemic injury, aspirin 1.25 mg/kg, apyrase 0.75 mg/kg IV at 2 h): 6.70±0.93% | reduction of infarct size compared to the control group ([7]; 1 mg/kg IV 5 minutes prior to ischemia, 60 min ischemia): approximately 50% | reduction of infarct size ([7]; 1 mg/kg IV 50 min after ischemia): approximately 50% | average luminal stenosis [8]: 19.8±2%
